# According to patent publication US7425614B2, “Neuroprotective therapeutics preventing ERK/MAPK activation through the NMDA receptor” (Children's Medical Center Corporation, priority 2003, dated 2008):
# What was measured:
# [1] = test system: CA1 pyramidal neurons; experiment: Assay II: propidium iodide (PI) resistance in organotypic hippocampal slice cultures; type: cell-based, rat; conditions: NMDA (50 μM) 20 minutes or ischemia; compared to non-transfected or GFP transfected control cells
# Experimental: (A) Survival of hippocampal neurons in culture exposed to Glutamate (100 μM) and Glycine (10 μM) for a 20 minute period. 14 div neuronal cultures were transfected with GFP, NR2B-BD or RasGRF1-BD 24 hours prior to analysis. The neuronal cultures were then incubated with glutamate for 20 minutes, washed with culture media and returned to the incubator for an additional 24 hours. The cells were then fixed with PFA and stained with a neuronal specific antibody, Map2. […] (B) Percentage of propidium iodide-resistant (surviving) neurons in organotypic hippocampal slices (P5+7div) expressing GFP, NR2B-BD or […] in control conditions and after 20 minutes exposure to NMDA (50 μM). The fluorescence of propidium iodide (PI) was measured 24 hours later. PI enters damaged cells and is a convenient tool to determine neuronal cell death. For PI staining, the slices were incubated in culture medium containing 0.1 mg/ml PI for 2 h. […]
# Assay II: propidium iodide (PI) resistance. […] Cell death was measured as cellular uptake of PI (3,8-diamino-5-[3-([…])propyl]-6-phenyl phenanthridinium diiodide at 24 and 48 h after exposure to NMDA or ischemia. As shown in FIG. 7(B), the expression of both NR2B-BD and RasGRF1-BD increased the percentage of neuronal survival (e.g., the percentage of PI negative neurons) as compared to non-transfected or GFP transfected control cells.
# [2] = test system: ERK; experiment: phospho-ERK immunocytochemistry in cultured hippocampal neurons; type: cell-based, rat; conditions: cultured hippocampal neurons
# Experimental: Neurons from 18 day rat embryos were dissociated using trypsin and plated on coverslips coated with poly-L-ysine in minimal essential medium (MEM) with 10% NU serum (BD Biosciences, Le Pont de Claix, France) at densities of 30,000 cells/cm^2 as described (Brewer, G. J. (1995) J. Neurosci. Res. 42, 674-683). On days 7 and 11 of culture incubation, half of the medium was changed to MEM with 2% B27 supplement (Invitrogen).
# Cells were transfected with cDNA for EGFP fusion proteins (LipofectAMINE 2000; Invitrogen) or by pseudoviral infection using a Sindbis expression system (Invitrogen). Neurons were incubated with cDNA and LipofectAMINE for 2 hr, rinsed, and incubated with culture media (MEM with 2% of B27 supplement) 17 hr prior to the experiment. For viral delivery, neuronal cultures were incubated 30 min with pseudoviral constructs diluted 200-500× in culture media. Cultures were rinsed and incubated in media for 15 hr. 0.1% to 1.5% of neurons were fluorescent after expressing LipofectAMINE-delivered constructs while Sindbis infection yielded 1%-10% transfection efficiency. Most of the experiments were performed on 12-14 days in vitro (div) cultures unless otherwise indicated.
# Three hours before stimulation, TTX (1 μM), CNQX (40 μM), APV (100 μM), and nimodipine (5 μM) were added to neurons. For stimulation, coverslips with neurons were transferred into the following solutions.
# (1) 100 μM NMDA, 10 μM glycine, 1 μM TTX, 40 μM CNQX, 5 μM nimodipine dissolved in culture media and incubated for 3 min. […]
# After stimulation, neurons were fixed with 4% formaldehyde and labeled with rabbit anti-phospho-p44/42 ERK antibody (Cell Signaling) and with mouse anti-MAP2 antibody (Sternberger Monoclonals). Cy3-conjugated goat anti-rabbit IgG and Cy5-conjugated goat antimouse IgG (Jackson Immunoresearch Laboratories, West Grove, Pa.) were secondary antibodies. NMDA and all antagonists were from Tocris Neuramin. BDNF was from Calbiochem. Images were acquired with an Olympus Fluoview-500 confocal microscope (40×; 1.0 NA) and quantified using Olympus Fluoview software. In each experiment, the pERK fluorescence of the cell soma was measured for 25 neurons taken from consecutive fields. Phospho-ERK fluorescence data were normalized to the values obtained in nontransfected cells after NMDA stimulation. The background fluorescence (mean fluorescence of nonstimulated neurons) was subtracted prior to normalization.
molecule,measurement,setting,value
"NR2B-BD: peptide of amino acids 886-1310 of the NR2B C-terminal domain that binds RasGRF1; used as NusA or EGFP fusion (protein, left off: small tags and cut ends, used as NusA or EGFP fusion) SPTATMNNTHSNILRLLRTAKNMANLSGVNGSPQSALDFIRRESSVYDISEHRRSFTHSDCKSYNNPPCEENLFSDYISEVERTFGNLQLKDSNVYQDHYHHHHRPHSIGSTSSIDGLYDCDNPPFTTQPRSISKKPLDIGLPSSKHSQLSDLYGKFSFKSDRYSGHDDLIRSDVSDISTHTVTYGNIEGNAAKRRKQQYKDSLKKRPASAKSRREFDEIELAYRRRPPRSPDHKRYFRDKEGLRDFYLDQFRTKENSPHWEHVDLTDIYKERSDDFKRDSVSGGGPCTNRSHLKHGTGEKHGVVGGVPAPWEKNLTNVDWEDRSGGNFCRSCPSKLHNYSSTVAGQNSGRQACIRCEACKKAGNLYDISKDNSLQELDQPAAPVAVTSNASSTKYPQSPTNSKAQKKNRNKLRRQHSYDTFVDL",percentage of neuronal survival (PI negative neurons),[1],increased
same,BDNF-induced ERK activation,[2]; 100 ng/ml BDNF,had no effect
same,NMDA-induced (NMDAR-dependent) ERK activation,[2]; 100 μM NMDA,inhibit
same,depolarization-induced ERK activation,[2]; 50 mM KCl,had no effect
